# Test results reported in the supplement of paper PMC7125110.
# ± gives the standard error. Fewer inactive variants are shown than the library holds.
# B1: glmS ribozyme (parent)
# chain: AUAAAAGCGCCAGAACUACAGAAAUGUAGUUGACGAGGAGGAGGUUUAUCGAAUUUUCGGCGGAUGCCUCCAAA
# Variants of: B1
# Assay: self-cleavage kobs at 2500 uM GlcN6P; higher = faster cleavage; RNA array
# Settings: with glucosamine-6-phosphate
# In short: (§1)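 Ribozyme variants carrying barcodes were transcribed in situ on sequenced MiSeq chips by E. coli RNA polymerase and tracked at 37 °C with a hybridised Cy3 probe. They were exposed to 40 μM to 10 mM glucosamine-6-phosphate in HEPES/KCl/Mg(OAc)2 buffer. kobs came from exponential decay fits of normalised per-tile medians, and kcat and KM from weighted Michaelis–Menten fits.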
row,Variant,self-cleavage kobs at 2500 uM GlcN6P [s⁻¹]
1,AUAAAAGCGCCAGAACUACAGAAAUGUAUUUGACGAGGAGGAGGUUUAUCGAAUUUACGGCGGAUGCCUCCAAA [G29U U57A],4.22e-05 ± 1.5e-05
2,AUAAAAGCGCCAGAACUACAGAAAUGUAGUUCACGAGGGGGAGGUUUAUCGAGUUUUCGGCAGAUGCCUCCAAA [G32C A39G A53G G62A],< 1e-05
3,AUAAAAGCGCCAGAACUACAGAAAUGUAGUUUACGAGGACGGGGUUUAUCGAAUUUUCGGCGGAUGCCUCCAAA [G32U G40C A42G],7.39e-05 ± 1.8e-05
4,AUAAAAGCGCCAGAACUACAGAAAUGUAGUUCACGAGUAGGAGGUUUAUCGAAUUUUGGGCGGAUGCCUCCAAA [G32C G38U C58G],< 1e-05
5,AUAAAAGCGCCAGAACUACAGAAAUGUAGUUUACGAGGAGGAAGUUUAUCGAAUUUUCGGCGGGUGCCUCCAAA [G32U G43A A64G],< 1e-05
6,AUAAAAGCGCCAGAACUACAGAAAUGUAGUUAACAAGGAGGAGGUUUAUCGAAUUUUCGGUGGAUGCCUCUAAA [G32A G35A C61U C71U],< 1e-05
7,AUAAAAGCGCCAGAACUACAGAAAUGUAGCUGACGAGGAGGAGGGUUAUCGAAUUUUCGGCGGAUGCCUUCAAA [U30C U45G C70U],7.88e-05 ± 1.9e-05
8,AUAAAAGCGCCAGAACUACAGAAAUGUAGUUGCCGAAGAGGAGGUUAAUCGAAUUUUCGGCGGAUGCCUCCAAA [A33C G37A U47A],< 1e-05
9,AUAAAAGCGCCAGAACUACAGAAAUGUAGUUCACUAGGAGCAGGUUUAUCGAAUUUUAGGCGGGUGCCUCCAAA [G32C G35U G41C C58A A64G],< 1e-05
10,AUAAAAGCGCCAGAACUACAGAAAUGUAGUUCACGAGGAGGAGGUUUAUCGAAUUUUCGGCCGAUGUCUCCAAA [G32C G62C C67U],< 1e-05
11,AUAAAAGCGCCAGAACUACAGAAAUGUAGAUGACGAGGAGGACGUUUAUCCAAUUUUCGGCGGAUGGCUCCAAA [U30A G43C G51C C67G],< 1e-05
12,AUAAAAGCGCCAGAACUACAGAAAUGUAGUUAACGAGGAGGAGUUUUAACGAAUUUUCGGCGAAUGCCUCCAAA [G32A G44U U49A G63A],< 1e-05
13,AUAAAAGCGCCAGAACUACAGAAAUGUAGUUAACGAGGAGGAGGUUUAUCGAAUUUUCGGCGGAUGCCGGUAAA [G32A U69G C70G C71U],0.00186 ± 0.00064
14,AUAAAAGCGCCAGAACUACAGAAAUGUAGCUGACGAGGAGGCGGUAUAUCGAAUUUUCGGCGGAUGCCUCCAAA [U30C A42C U46A],< 1e-05
15,AUAAAAGCGCCAGAACUACAGAAAUGUACUUGACGAGGAAGAGGUUUAUCGAAUUGUCGGCGGAUGCCUCCAAA [G29C G40A U56G],4.42e-05 ± 1.1e-05
16,AUAAAAGCGCCAGAACUACAGAAAUGUAGUCCACGAGGGGGAGGUUUAUCGAAUUUUCGGCGGAUGCCUCCAAA [U31C G32C A39G],0.000381 ± 0.00015
17,AUAAAAGCGCCAGAACUACAGAAAUGUAGAAGACGAGGAAGAGGUUUAUCGAAUUUGCGGCGGAUGCCUCCAAA [U30A U31A G40A U57G],< 1e-05

row,Variant,self-cleavage kobs at 2500 uM GlcN6P [s⁻¹]
1,AUAAAAGCGCCAGAACUACAGAAAUGUAGUAGACGAGGGGGAGGUUUAUCGAAUUUUCGGCGGAUGUCUCCAAA [U31A A39G C67U],0.00111 ± 0.0004
2,AUAAAAGCGCCAGAACUACAGAAAUGUAGUUUACGAGCACGAGGUUUAUCGAAUUUCCGGCGGAUGACUCCAAA [G32U G38C G40C U57C C67A],< 1e-05
3,AUAAAAGCGCCAGAACUACAGAAAUGUAGUGAACGAGGAGGAGGUUUAUCGAAUUUUCGGCGGGUGCCUCCAAA [U31G G32A A64G],0.000581 ± 0.00022
4,AUAAAAGCGCCAGAACUACAGAAAUGUAGUCGACGAUGAGGAGGUUUAUCGAAUUUUCGGCGGAAGCCUCCAAA [U31C G37U U65A],< 1e-05
5,AUAAAAGCGCCAGAACUACAGAAAUGUAGUGUACGAGGAGGAGGUUUAUCGAAUUUUCGGCGGAUGCCUCUAAA [U31G G32U C71U],0.000775 ± 0.00015
6,AUAAAAGCGCCAGAACUACAGAAAUGUAGUUAACGAGGAGGAGGGUUAUCCAAUUUUCGGCGGAUGCCUCCAAA [G32A U45G G51C],< 1e-05
7,AUAAAAGCGCCAGAACUACAGAAAUGUAGUAGACGAGGAGGAGGUUUGUCGAAUUUUCAGCGGAUGCCUCCAAA [U31A A48G G59A],0.000108 ± 3.6e-05
8,AUAAAAGCGCCAGAACUACAGAAAUGUAGUUCACGAGGUGGAGGUUUAUGGCAUUUACGGCGGUUGCCUCCAAA [G32C A39U C50G A52C U57A A64U],< 1e-05
9,AUAAAAGCGCCAGAACUACAGAAAUGUAGUUUACGAGGAGGAGGUUUAUCGAAUUGUCGGCGGAUGCCUCAAAA [G32U U56G C71A],9.14e-05 ± 2e-05
10,AUAAAAGCGCCAGAACUACAGAAAUGUAGCUGACGACCAGGAGGUUUAUCGAAUUUUCGGUGGAUGCCUCCAAA [U30C G37C G38C C61U],< 1e-05
11,AUAAAAGCGCCAGAACUACAGAAAUGUAGUCGACGUGGAGGAGGUUUAUCGAAUUUUCGGCGGAUGCCUCCAAA [U31C A36U],< 1e-05
12,AUAAAAGCGCCAGAACUACAGAAAUGUAGUUGCCGAGGAGGAGGUUUACCGAAUUUUCGGCGGAUGCCUUCAAA [A33C U49C C70U],< 1e-05
13,AUAAAAGCGCCAGAACUACAGAAAUGUAGAUGACGUGGAGGAGGUUUAUCGAAUUUUCGGCGGAUGCCUCAAAA [U30A A36U C71A],< 1e-05
14,AUAAAAGCGCCAGAACUACAGAAAUGUAGUGGCCGAGCGGGAGGUUUAUCGAAUUUUCGGCAGAUGCCUCCAAA [U31G A33C G38C A39G G62A],< 1e-05
15,AUAAAAGCGCCAGAACUACAGAAAUGUAUUUGACGAGGAGGAGGGUUAUCGAAUUUUCGGCGGAUGCCUCUAAA [G29U U45G C71U],0.000117 ± 5e-05
16,AUAAAAGCGCCAGAACUACAGAAAUGUAGAUGACGAAGAGGAGGUUUAUCGAAUUUUCCGCGGAUGCCUCCAAA [U30A G37A G59C],< 1e-05

# Variants of: B1
# Assay: self-cleavage kobs at 10000 uM GlcN6P; higher = faster cleavage; RNA array
# Settings: with glucosamine-6-phosphate
# In short: as §1
row,Variant,self-cleavage kobs at 10000 uM GlcN6P [s⁻¹]
1,AUAAAAGCGCCAGAACUACAGAAAUGUAGUUCACGAGGAGGAGGUUUAUCGAAUUUUCGGCCGAUGUCUCCAAA [G32C G62C C67U],< 1e-05
2,AUAAAAGCGCCAGAACUACAGAAAUGUAGUGAACGAGGAGGAGGUUUAUCGAAUUUUCGGCGGGUGCCUCCAAA [U31G G32A A64G],0.00106 ± 0.00026
3,AUAAAAGCGCCAGAACUACAGAAAUGUAGUCGACGUGGAGGAGGUUUAUCGAAUUUUCGGCGGAUGCCUCCAAA [U31C A36U],< 1e-05
4,AUAAAAGCGCCAGAACUACAGAAAUGUAGAUGACGUGGAGGAGGUUUAUCGAAUUUUCGGCGGAUGCCUCAAAA [U30A A36U C71A],< 1e-05
